According to publication PMC11963547:

Target: penicillin-binding protein 2a (S. aureus (endogenous in strain USA300))
Assay: cross-linking + native gel or EMSA

For “penicillin-binding protein 2a (natural protein)”, the stoichiometry N was 3.
